Measured values: patent publication US20260374888 (published 2026)

B1: GEN1042 (CD137 arm) (antibody, V domains shown)
VH: EVQLVESGGGLVQPGRSLRLSCTASGFSLNDYWMSWVRQAPGKGLEWVGYIDVGGSLYYAASVKGRFTISRDDSKSIAYLQMNSLKTEDTAVYYCARGGLTYGFDLWGQGTLVTVSS
VL: DIVMTQSPSSLSASVGDRVTITCQASEDISSYLAWYQQKPGKAPKRLIYGASDLASGVPSRFSASGSGTDYTFTISSLQPEDIATYYCHYYATISGLGVAFGGGTKVEIK
B2: GEN1042 (CD40 arm) (antibody, V domains shown)
VH: EVQLVQSGAEVKKPGASVKVSCKTSGYTFTEYIMHWVRQAPGQGLEWMGGIIPNNGGTSYNQKFQGRVTMTVDKSTSTGYMELSSLRSEDTAVYYCTRREVYGRNYYALDYWGQGTLVTVSS
VL: DIQMTQSPSSLSASVGDRVTITCSASQGINNYLNWYQQKPGKAVKLLIYYTSSLHSGVPSRFSGSGSGTDYTFTISSLQPEDIATYYCQQYSNLPYTFGGGTKVEIK

Assays:
mouse 4-1BB = target: T1, mouse 4-1BB (mouse, UniProt P20334); assay: other, cells transiently overexpressing target
T1 chain: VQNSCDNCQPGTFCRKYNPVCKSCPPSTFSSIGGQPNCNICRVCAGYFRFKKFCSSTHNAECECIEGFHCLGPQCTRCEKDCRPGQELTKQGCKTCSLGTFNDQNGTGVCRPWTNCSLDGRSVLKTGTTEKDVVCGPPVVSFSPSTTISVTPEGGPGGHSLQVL

mouse CD40 = target: T2, mouse CD40 (mouse, UniProt P27512); assay: other, cells transiently overexpressing target
T2 chain: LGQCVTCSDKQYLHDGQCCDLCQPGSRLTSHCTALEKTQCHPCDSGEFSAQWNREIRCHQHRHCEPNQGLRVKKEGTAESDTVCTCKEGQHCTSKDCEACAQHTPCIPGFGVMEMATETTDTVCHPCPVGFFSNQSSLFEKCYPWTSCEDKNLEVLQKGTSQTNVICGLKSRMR

Binder	binding result (mouse 4-1BB)	binding result (mouse CD40)
B1	no binding	–
B2	–	no binding
